According to US9066986B2, “Anti-CEACAM6 antibodies and uses thereof” (National Research Council of Canada, priority 2010, dated 2015):

Columns and labels:
MMP-2 = assay: Gelatin zymography of conditioned media from treated BxPC3 cells; format: cell-based, human
Procedure: (§1) Gelatin zymography is used to detect the activity of gelatinases, namely, matrix metalloproteinases MMP-2 and MMP-9 (28).
(§2) The medium aliquots were taken from BxPC3 cultures at the time the proliferation assays (Example 9) were performed. For evaluation of dose-dependence effect, antibodies and gemcitabine were used at concentrations of 0.4-25 μM and 0.4-50 nM, respectively. The media were applied to a 10% sodium dodecyl sulfate-polyacrylamide gel electrophoresis gel (SDS-PAGE) that was supplemented with 1.5 mg/ml gelatin. The gel was run at 150 V until the bromophenol blue dye reached the bottom of the gel. SDS was removed from the gel by washing the gel four times with 2.5% Triton X-100 for 30 min at room temperature with gentle shaking using an orbital shaker (28). The gel was then incubated overnight at 37° C. in development buffer comprising 50 mM Tris-HCl, 0.2 M NaCl, 5 mM CaCl2, 5 mM ZnCl2, 0.02% Brij-35, and 0.05% NaN3 at pH 7.4. Gelatinase-digested gelatine-supplemented gels were stained with Coomassie blue. Clean bands produced by MMP-2 and MMP-9 activity were visible against the blue background after de-staining. The relative activities of the gelatinases were determined by using a densitometer (AlphaView, Fluor Chem SP, Alpha Innotech Corporation, San Leandro, Calif., USA).

MMP-9 = assay: as above; format: cell-based, human; conditions: for effect on MMP-9 activity: media from treated BxPC3 cells
Procedure: as §1, §2

HUVECs = assay: In vitro capillary formation assay with conditioned media of treated BxPC3 cells; format: cell-based, human; conditions: for inhibition of tubule formation (endothelial cell angiogenesis): HUVEC in conditioned media from BxPC3 cells treated 24 hrs, 16 h culture
Text: Angiogenesis is another critical step in the progression of pancreatic cancer. Relatively complex and dense micro-vessels are localized in pancreatic cancer tissue. Highly vascular tumors are associated with an increased risk of hepatic metastasis and a poor survival rate (Semenza, 2003). Anti-angiogenesis is a valid strategy when employing pancreatic cancer target therapy. Thus, the in vitro capillary formation assay was used to test the ability of conditioned media of sdAb-treated BxPC3 cells to inhibit HUVECs angiogenesis.
The matrix was then polymerized at 37° C. for 30 min. […] HUVEC cells were then seeded onto the polymerized matrix at 5×10^4 cells per well. The cells were cultured at 37° C. for 16 h then stained with Calcein AM (Invitrogen) for 30 min. Photographs were taken at 100× magnification employing fluorescence microscopy (Olympus BX51). Three fields that were randomly chosen were captured and the lengths of the capillaries in each field were measured.

BxPC3 cells [1] = assay: In vitro MTT cell proliferation assay; format: cell-based, human; conditions: for inhibition of BxPC3 cell proliferation: vs starvation medium control
Procedure: (§3) Cells were left to grow for 72 h in the presence of the sdAb, then assayed for viability. Briefly, 20 μl of MTT reagent (2 mg/ml in PBS) was added to each well. After four hours, the supernatant was removed, adherent cells were lysed, and the crystals were solubilized with 100 μl dimethyl sulfoxide (DMSO, Sigma) per well. The absorbance of the formazan product was measured with a plate reader at a wavelength of 570 nm. After subtracting background absorbance, results were expressed as absorbance.
as §2

BxPC3 cells [2] = assay: Matrigel invasion assay; format: cell-based, human; conditions: for invasiveness of treated cells decreased to: 40 μM, 20 hrs, normalized to non-treated control
Procedure: Matrigel invasion assay is designed to evaluate the capability of cells to invade into matrigel, an indication of the capacity to metastasize.
The assay was carried out by using bio-coated Matrigel invasion chambers (BD Biosciences, Bedford, Mass.). […] Only cells that could digest the matrix could migrate through the pores. […] The cells were re-suspended in RPMI medium and seeded on the tops of insert wells at 1×10^5 cells/well density and cultured at 37° C. in a humidified CO2 chamber. After 20 hrs, the non-invasive cells were scrubbed from the top of the insert well using a cotton-swap. The invasive cells on the bottom surface were stained with Calcein AM (Invitrogen) and were photographed with an Olympus BX51 microscope. All experiments were performed in triplicate.

A549 cells [3] = assay: Flow cytometry with FITC-labelled sdAb; format: cell-based, human; conditions: FITC-labelled 2A3, 5 μg/ml, fixed A549 cells, FACS
Procedure: (§4) For flow cytometry, purified sdAbs were labelled with FITC as instructed by the manufacturer (Invitrogen). Different cell lines were grown as a monolayer until they were approximately 80% confluent. After fixing by 10% formaldehyde in PBS for 10 minutes, cells were washed with PBS then incubated at room temperature with different FITC-labelled sdAbs. After one hour of incubation, cells were washed twice with PBS to remove unbound sdAbs and the cells were analyzed by flow cytometry using a FACS Canto flow cytometer (BD Bio-sciences).

LS174T cells = assay: Flow cytometry with FITC-labelled sdAb; format: cell-based, human; conditions: FITC-labelled 2A3, 5 μg/ml, fixed LS174 cells, FACS
Procedure: as §4

BxPC3 cells [4] = assay: Flow cytometry with FITC-labelled sdAb; format: cell-based, human; conditions: FITC-labelled 2A3, 5 μg/ml, fixed BxPC3 cells, FACS
Procedure: as §4

CEACAM6 N-domain [5] = target: T1, CEACAM6 N-domain (Homo sapiens, UniProt P40199); assay: Affinity measurement by surface plasmon resonance (Biacore 3000); design: made in house; host or cells: E. coli; conditions: SPR, CEACAM6 immobilized, 1:1 Langmuir binding model
T1 sequence (P40199 35-142 limits assumed): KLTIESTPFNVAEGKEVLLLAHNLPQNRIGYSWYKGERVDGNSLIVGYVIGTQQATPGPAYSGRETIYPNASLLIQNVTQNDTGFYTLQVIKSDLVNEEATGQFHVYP
Procedure: 209 RUs of CEACAM6 and 1746 RUs of Ovalbumin (as reference protein) were immobilized on research grade sensor chip CM5 (GE HealthCare). Immobilizations were performed with an amine-coupling kit (GE Healthcare) and carried out at 50 μg/ml CEACAM6 in 10 mM Acetate, pH 4 (GE Healthcare) and 50 μg/ml of Ovalbumin in 10 mM Acetate, pH 4.5. 120 μL of the sdAb at concentration of 1 nM to 60 nM were injected over the surfaces at a flow rate of 40 μl/min. Analyses were carried out at room temperature in HBS-EP, 10 mM HEPES pH 7.4, 150 mM NaCl, 3 mM EDTA and 0.005% surfactant P20 (GE Healthcare). Regeneration was performed with running buffer (HBS-EP). Data were analyzed with BIAevaluation software 4.1.
One hundred twenty microliters of CEACAM6 recombinant protein at concentration of 0.1 nM to 200 nM was injected over the surfaces at a flow rate of 40 μl min-1. Analyses were carried out at room temperature in HBS-EP comprising 10 mM HEPES pH 7.4, 150 mM NaCl, 3 mM EDTA and 0.005% surfactant P20 (GE Healthcare). Regeneration was performed with HBS-EP used as running buffer. The data were analyzed by using BIAevaluation software 4.1.

A549 cells [6] = assay: In vitro MTT cell proliferation assay; format: cell-based, human; conditions: 125 μg/ml antibody
Procedure: as §3

LS174 cells = assay: In vitro MTT cell proliferation assay; format: cell-based, human; conditions: 125 μg/ml antibody
Procedure: as §3

CEACAM6 N-domain [7] = target: T1, CEACAM6 N-domain
Procedure: Maxisorb 96-well microtiter plates (Nunc) were coated with 2 μg/ml recombinant CEACAM6 protein (N-domain) overnight at 4° C. in phosphate-buffered saline (PBS). 2% fat-free dry milk solution in PBS was used for 2 h at room temperature to block the residual protein-binding sites in the wells. Serial diluted serum or soluble recombinant sdAbs were added to the wells, which were incubated at 37° C. for 24 hr. Detection of llama IgGs and sdAb was performed with goat anti-llama IgG (Bethyl Lab, Montgomery, Tex.), horseradish peroxidase anti-goat conjugate (Cedarlane, Burlington, ON) and the corresponding substrate KPL for peroxidase. The reaction was stopped by adding 1 M H3PO4 and the absorption at 405 nm was measured.
The sdAb was incubated in mouse serum and the residual binding capacity was measured by ELISA then compared with the same antibody that was not incubated in serum.

BxPC3 tumor [8] = assay: Small animal PET imaging and ROI analysis
Procedure: Subcutaneous BxPC3 tumor model was established in 5 to 6-week-old female athymic nude mice obtained from Harlan (Indianapolis, Ind.); 5×10^6 cells suspended in 50 μl of phosphate buffered saline (PBS) were injected and the mice underwent small animal PET studies when the tumor volume reached 100-200 mm^3 (3-4 weeks after inoculation). PET scans and image analysis were performed using an Inveon microPET scanner (Siemens Medical Solutions). About 3.7 MBq (100 μCi/5 μg) of ^64Cu-DOTA-Abs were administered via tail vein injection under isoflurane anesthesia. Five-minute static PET images were acquired at different time points post-injection (p.i.; n=4/group). The images were reconstructed using a two-dimensional ordered-subset expectation maximization (2D OSEM) algorithm, and no correction was applied for attenuation or scattering. For each scan, regions of interest (ROIs) were drawn over the tumor and major organs using vendor software (ASI Pro 5.2.4.0) on decay-corrected whole-body coronal images. The radioactivity concentrations (accumulation) within the tumors, muscle, liver, and kidneys were obtained from mean pixel values within the multiple ROI volume and then converted to MBq per milliliter per minute using the calibration factor determined for the Inveon PET system. […]

BxPC3 tumor [9] = assay: Ex vivo biodistribution (γ-counter); conditions: 64Cu-DOTA-labelled, 24 hr p.i., n=4
Procedure: Blood, tumor, major organs, and tissues were collected and wet-weighed. The radioactivity in the wet whole tissue was measured with a γ-counter (Packard). The results were expressed as percentage of injected dose per gram of tissue (% ID/g) for a group of 4 animals. For each mouse, the radioactivity of the tissue samples was calibrated against a known aliquot of the injected radiotracer and normalized to a body mass of 20 g. Values were expressed as mean±SD (n=4/group).

UM-SCC-22B cells = assay: Cell uptake of 64Cu-labelled tracer; format: cell-based, human; conditions: 22B cells compared with BxPC3 cells
Procedure: (§5) Cell uptake, internalization, and efflux of ^64Cu-DOTA-2A3-Fc were performed with BxPC3 and UM-SCC-22B tumor cells (negative control). For cell uptake, the cells were seeded into 24-well plates at a density of 1×10^5 cells per well and incubated with 18.5 kBq (0.5 μCi/5 ng)/well of ^64Cu-labelled tracer at 37° C. for 15, 30, 60, and 120 min. The cells were then washed three times with chilled PBS and lysed with 500 μL 0.1 M NaOH. For efflux studies, about 18.5 kBq (0.5 μCi)/well of ^64Cu-DOTA-2A3-mFc were first incubated with BxPC3 cells in 24-well plates for 2 h at 37° C. The cells were washed three times with chilled PBS and allowed to stand with fresh buffer. At various time points, the medium was removed and the cells washed three times with chilled PBS. The cells were then lysed with 500 μL 0.1 M NaOH. The cell lysate was collected and the remaining radioactivity was measured in a γ counter (Packard, Meriden, Conn.). The cell uptake, and efflux were expressed as the percentage of the added dose (% AD) after decay correction. All experiments were performed with triplicate wells.

BxPC3 cells [10] = assay: Cell uptake and efflux of 64Cu-labelled tracer; format: cell-based, human
Procedure: as §5

Nc1ccn([C@@H]2O[C@H](CO)[C@@H](O)C2(F)F)c(=O)n1 [gemcitabine, reference compound]
increase of MMP-2 activity (MMP-2; at high dosages): ~10%
effect on MMP-2 activity (MMP-2; media from treated BxPC3 cells): does not affect MMP-2 and MMP-9 activity
increase of MMP-9 activity (MMP-9; at high dosages): ~10%
effect on MMP-9 activity (MMP-9): slightly increased MMP-9 activity
effect on angiogenesis (HUVECs; culture medium from treated BxPC3 cells): inhibitory effects on angiogenesis were not seen
IC50 (BxPC3 cells [1]; Homo sapiens, BXPC-3, 72 h, MTT, n=5): 12 nM
effect on invasion (BxPC3 cells [2]): did not affect angiogenesis or invasion

B1: 2A3: anti-CEACAM6 llama single domain antibody (sdAb), SEQ ID NO:4 (protein)
VHH: QVKLEESGGGLVQAGGSLRLSCRTSGRTNSVYTMGWFRQAPGKEREFVAQIMWGAGTNTHYADSVKGRFTISRDSAESTVYLQMNSLKPEDTAVYYCAANRGIPIAGRQYDYWGQGTQVTVSS
modifications: Anti-CEACAM6 sdAb
cells stained positive (A549 cells [3]): ~20%
cells stained positive (LS174T cells): about 16%
cells stained positive (BxPC3 cells [4]): approximately 90%
effect on MMP-2 activity (MMP-2; 5 μM dosage): did not influence MMP-2 activity significantly
effect on MMP-2 activity (MMP-2; media from treated BxPC3 cells): not MMP-2 activity
MMP-9 activity reduced to (MMP-9; 5 μM dosage): 25%
culture medium MMP-9 activity down-regulated by (MMP-9; 2A3-treated BxPC3 compared to non-treated cells): 33%
effect on MMP-9 activity (MMP-9): reduce the activity of MMP-9
dissociation rate (kd) (CEACAM6 N-domain [5]): 0.0053 s⁻¹
association rate (ka) (CEACAM6 N-domain [5]; sdAb 1 nM to 60 nM, room temperature): 1.1e+06 M⁻¹ s⁻¹
effect on A549 growth (A549 cells [6]): little effect on their growth
effect on LS174 growth (LS174 cells): little effect on their growth
inhibition of tubule formation (endothelial cell angiogenesis) (HUVECs): 21%
inhibition of BxPC3 cell proliferation (BxPC3 cells [1]; 50 μg/ml): approximately 27%
effect on BxPC3 proliferation (BxPC3 cells [1]; 125 μg/ml antibody, vs irrelevant sdAb BSA12, p<0.0001): inhibits BxPC3 proliferation in vitro
BxPC3 invasiveness reduced by (BxPC3 cells [2]): ~73%
invasiveness of treated cells decreased to (BxPC3 cells [2]): 27.4±8.4%
residual binding capacity after incubation in mouse serum (CEACAM6 N-domain [7]): retained its full binding capacity

B2: 2A3-Fc: 2A3 sdAb fused to the mouse Fc2b fragment; heavy chain antibody (protein)
chain: B1 VHH
modifications: left off: a dimerising Fc or GST
notes: heavy chain antibody
effect on MMP-2 activity (MMP-2; media from treated BxPC3 cells): not MMP-2 activity
effect on MMP-9 activity (MMP-9): reduce the activity of MMP-9
tumor uptake (BxPC3 tumor [8]; 64Cu-DOTA-labelled, PET ROI, 24 hr p.i.): 98.2±6.12 % ID/g
share of the total injected dose distributed to tumor region (BxPC3 tumor [8]; 24 hr after injection, average tumor size 184 mm^3): Roughly 18%
inhibition of tubule formation (endothelial cell angiogenesis) (HUVECs): 49%
inhibition of BxPC3 cell proliferation (BxPC3 cells [1]; 360 μg/ml): 55%
invasiveness of treated cells decreased to (BxPC3 cells [2]): 27.4±4.8%
BxPC3 tumor uptake, ex vivo (BxPC3 tumor [9]): 95.4±29.3 % ID/g

B3: ^64Cu-DOTA-2A3-Fc: 2A3-Fc conjugated with DOTA and labelled with 64Cu, PET tracer (conjugate)
chain: B1 VHH
modifications: left off: a dimerising Fc or GST
cell uptake (UM-SCC-22B cells): much lower uptake
total cell uptake (BxPC3 cells [10]; 2 hr incubation, 37° C.): 10.13±0.05 % of total added dose
radioactivity retained on the cells (efflux) (BxPC3 cells [10]; after 2 h incubation in medium devoid of radioactivity): more than 65%
